Source: patent US5739278A, “Compositions for protein tyrosine phosphatases” (University of Washington, priority 1995, dated 1998)
Where no end group is shown, it is not given here. [ ]: non-standard residue; d: D form. pY = N[C@@H](Cc1ccc(OP(=O)(O)O)cc1)C(=O)O

Assays:
TCΔC11.PTP = biological target: T1, TCΔC11.PTP (Homo sapiens, UniProt P17706); test: Phosphatase assay with ENDY(P)INASL as substrate; type: biochemical
T1 construct: both the wild type and truncated forms of the T-cell phosphatase; made in house; host or cells: Sf9 cells (baculovirus)
T1 sequence (P17706 1-317 limits assumed): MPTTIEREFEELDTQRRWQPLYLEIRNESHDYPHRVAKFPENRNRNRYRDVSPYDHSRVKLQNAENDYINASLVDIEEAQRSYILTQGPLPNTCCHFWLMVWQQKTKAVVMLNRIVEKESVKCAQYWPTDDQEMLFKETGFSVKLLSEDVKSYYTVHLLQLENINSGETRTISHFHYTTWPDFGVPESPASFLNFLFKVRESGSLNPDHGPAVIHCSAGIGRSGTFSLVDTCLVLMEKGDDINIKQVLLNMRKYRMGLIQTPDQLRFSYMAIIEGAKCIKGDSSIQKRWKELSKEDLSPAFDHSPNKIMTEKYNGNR
Method in brief: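 TC.PTP, TCΔC11.PTP and RPTPα were purified from infected Sf9 cells; PTP1B (37 kDa form) was purified from placenta. Enzyme, ENDY(P)INASL phosphopeptide and effectors were incubated in buffer M6 for 10 min at 30 °C. The reaction was stopped with acidic charcoal, and radioactivity was counted in the cleared supernatant.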

TC.PTP = biological target: T2, TC.PTP (Homo sapiens, UniProt P17706); test: Determination of TC.PTP activity in immunoprecipitates; type: biochemical; conditions: for % Dephosphorylation: 100% = total bound radioactivity in the assay
T2 construct: made in house; host or cells: Sf9 cells (baculovirus)
T2 sequence (P17706 1-415): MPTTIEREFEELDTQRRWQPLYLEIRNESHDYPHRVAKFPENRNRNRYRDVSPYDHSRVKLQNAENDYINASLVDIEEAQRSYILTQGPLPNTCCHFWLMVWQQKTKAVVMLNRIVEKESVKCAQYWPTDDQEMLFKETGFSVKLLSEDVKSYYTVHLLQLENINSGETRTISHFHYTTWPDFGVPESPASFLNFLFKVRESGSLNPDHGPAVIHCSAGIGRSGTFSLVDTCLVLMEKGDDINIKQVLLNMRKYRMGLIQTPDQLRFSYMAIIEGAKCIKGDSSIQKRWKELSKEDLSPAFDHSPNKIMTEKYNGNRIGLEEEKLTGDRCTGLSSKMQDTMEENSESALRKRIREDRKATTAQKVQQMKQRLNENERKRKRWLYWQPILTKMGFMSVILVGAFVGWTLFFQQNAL
Method: Immunoprecipitations were carded out in 500 μl buffer AT containing phosphatase (in the amount indicated in the tables below), 3 μl rabbit antisera #6228 raised against the baculovirus expressed TCΔC11.PTP (Zander et al., Biochemistry 30: 6964-6970, 1991) and 20 μl protein A agarose beads. The mixture was rotated overnight at 4° C. The beads were washed three times with HNTG and tested for PTP activity. No PTP activity was detected in controls without antisera.
Phosphatase assays with ENDY(P)INASL were performed in buffer M6. Aliquots of 30 μl or 60 μl containing the phosphopeptide, the phosphatase (-beads) and effectors were incubated for 10 minutes at 30° C. The reaction was stopped by adding 200 μl of a suspension of 10% activated, acid-washed Norit A charcoal (v/v) in 0.9N HCl, 0.1M pyrophosphate and 2 mM NaH2 PO4 (according to Streuli et al., Proc. Natl. Acad. Sci. USA 86: 8698-8702, 1989). The mixture was cleared by 10-minute centrifugation and the radioactivity of 150 μl of the supernate was determined. Assays with MBP and RCML were performed as described in Tonks et al., J. Biol. Chem. 263: 6722-6730, 1988. Protein concentration was determined with BSA as standard (Bradford, Anal. Biochem. 72: 248-254, 1976).

For “ENDY(P)INASL: ENDYINASL phosphorylated on its tyrosine residue (32P), used as PTP substrate (END[pY]INASL; also: phosphate 32P-labelled)”, the Km (TCΔC11.PTP; non-linear regression of substrate saturation curves, mean of two experiments) was 1 ± 0.4 µM, the Vmax (TCΔC11.PTP; one unit = release of 1 nmol phosphate per minute) was 13374 +/- 970 U/mg and the “Lowest amount of immunoprecipitated phosphatase that could be detected with the substrate” value (TC.PTP; TC.PTP immunoprecipitates on beads) was 1 ng. The “% Dephosphorylation” value (TC.PTP; immunoprecipitated TC.PTP 0.3 ng) was 0%, the “% Dephosphorylation” value (TC.PTP; immunoprecipitated TC.PTP 1 ng) was 1.8% and the “% Dephosphorylation” value (TC.PTP; immunoprecipitated TC.PTP 3 ng) was 3.9%. For the same substance, the “% Dephosphorylation” value (TC.PTP; immunoprecipitated TC.PTP 10 ng) was 10.8%, the “% Dephosphorylation” value (TC.PTP; immunoprecipitated TC.PTP 30 ng) was 17.5% and the “% Dephosphorylation” value (TC.PTP; immunoprecipitated TC.PTP 100 ng) was 28.1%.
